1 protein from US20060134719 can be followed below.

Series [1] addresses T1, C-type natriuretic peptide 22 (CNP 22), P23582.
T1 chain: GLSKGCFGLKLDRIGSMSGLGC

For series [2], the target named is T2, vasoactive intestinal peptide (VIP), P01282.
T2 chain: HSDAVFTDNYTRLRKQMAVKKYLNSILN

Series [3] deals with T3, A-type natriuretic peptide (ANP), P01160.
T3 chain: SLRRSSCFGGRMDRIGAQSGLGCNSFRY

In series [4] the target is neuropeptide Y (NPY), P01303.
Series [5] deals with T4, melanin-concentrating hormone (MCH), P20382.
T4 chain: DFDMLRCMLGRVYRPCWQV

Series [6] addresses T5, α-melanocyte stimulating hormone (α-MSH), P01189 (not fully specified).
T5 chain: SYSMEHFRWGKPV

B1: purified signal-FLAG-ARS-extracellular enzyme after the treatment with trypsin beads (protein)
chain: STQGFHVDHTAELRGIRWTSSLRRETSDYHRTLTPTLEALFVSSFQKTELEASCVGCSVLNYRDGNSSVLVHFQLHFLLRPLQTLSLGLEEELLQRGIRARLREHGISLAAYGTIVSAELTGRHKGPLAERDFKSGRCPGNSFSCGNSQCVTKVNPECDDQEDCSDGSDEAHCECGLQPAWRMAGRIVGGMEASPGEFPWQASLRENKEHFCGAAIINARWLVSAAHCFNEFQDPTKWVAYVGATYLSGSEASTVRAQVVQIVKHPLYNADTADFDVAVLELTSPLPFGRHIQPVCLPAATHIFPPSKKCLISGWGYLKEDFLVKPEVLQKATVELLDQALCASLYGHSLTDRMVCAGYLDGKVDSCQGDSGGPLVCEEPSGRFFLAGIVSWGIGCAEARRPGVYARVTRLRDWILEATTKASMPLAPTMAPAPAAPSTAWPTSPESPVVSTPTKSMQALSTVPLDWVTVPKLQGIFGAER
With B1, the “cleavage of the substrate peptide, HPLC analysis after reaction at 37° C. for 16 hours” value in series [1] is “the enzyme sample selectively cleaved VIP, NPY, ANP, CNP, α-MSH, and MCH”; in series [2], “the enzyme sample selectively cleaved VIP, NPY, ANP, CNP, α-MSH, and MCH”; in series [3], “the enzyme sample selectively cleaved VIP, NPY, ANP, CNP, α-MSH, and MCH”; in series [4], “the enzyme sample selectively cleaved VIP, NPY, ANP, CNP, α-MSH, and MCH”; in series [5], “the enzyme sample selectively cleaved VIP, NPY, ANP, CNP, α-MSH, and MCH”; in series [6] it was “the enzyme sample selectively cleaved VIP, NPY, ANP, CNP, α-MSH, and MCH”.
